# Reference: US20080138349A1
# Tests used:
# [1] = target: FcγRIIA 131H (CD32A H131), soluble dimeric Fc fusion (human) (UniProt P12318); assay: binding to human FcRs; method not given
# [2] = target: FcγRIIB (CD32B), soluble dimeric Fc fusion (human) (UniProt P31994); assay: binding to human FcRs; method not given
# [3] = target: FcγRIIIA 158F (CD16A F158), soluble monomer (human) (UniProt P08637); assay: binding to human FcRs; method not given
# [4] = target: FcγRIIIA 158V (CD16A V158), soluble monomer (human) (UniProt P08637); assay: binding to human FcRs; method not given
# Chain of FcγRIIIA 158V (CD16A V158), soluble monomer (human) (P08637 17-208 F176V): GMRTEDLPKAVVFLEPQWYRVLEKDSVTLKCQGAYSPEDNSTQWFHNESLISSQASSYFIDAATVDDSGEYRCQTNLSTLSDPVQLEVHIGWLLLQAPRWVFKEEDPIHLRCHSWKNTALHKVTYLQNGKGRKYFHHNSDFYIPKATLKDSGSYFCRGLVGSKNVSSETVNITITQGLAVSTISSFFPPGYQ
# [5] = target: FcγRIIB (CD32B), soluble dimeric Fc fusion (human) (UniProt P31994); assay: Biacore SPR
# [6] = target: FcγRIIIA 158F (CD16A F158), soluble monomer (human) (UniProt P08637); assay: Biacore SPR
# [7] = target: FcγRIIIA 158V (CD16A V158), soluble monomer (human) (UniProt P08637); assay: Biacore SPR
# [8] = target: FcγRIIIA 158F (CD16A F158), soluble monomer (human) (UniProt P08637); assay: Biacore SPR; value on CD16A over value on CD32B
# [9] = target: FcγRIIIA 158V (CD16A V158), soluble monomer (human) (UniProt P08637); assay: Biacore SPR; value on CD16A over value on CD32B
# [10] = target: FcγRIIA 131H (CD32A H131), soluble dimeric Fc fusion (human) (UniProt P12318); assay: method not given
# [11] = target: FcγRIIA 131R (CD32A R131), soluble dimeric Fc fusion (human) (UniProt P12318); assay: method not given
# Chain of FcγRIIA 131R (CD32A R131), soluble dimeric Fc fusion (human) (P12318 34-217 H167R): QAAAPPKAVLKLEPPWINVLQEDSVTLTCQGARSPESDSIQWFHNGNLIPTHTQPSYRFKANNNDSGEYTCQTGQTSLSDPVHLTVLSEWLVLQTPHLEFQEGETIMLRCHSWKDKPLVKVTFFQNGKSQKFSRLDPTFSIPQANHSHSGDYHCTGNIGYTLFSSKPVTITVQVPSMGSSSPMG
# [12] = target: FcγRIIB (CD32B), soluble dimeric Fc fusion (human) (UniProt P31994); assay: method not given
# [13] = target: FcγRIIIA 158F (CD16A F158), soluble monomer (human) (UniProt P08637); assay: method not given
# [14] = target: FcγRIIIA 158V (CD16A V158), soluble monomer (human) (UniProt P08637); assay: method not given
# [15] = target: FcγRIIIA 158F (CD16A F158), soluble monomer (human) (UniProt P08637); assay: value on CD16A 158F over value on CD32B
# [16] = target: FcγRIIIA 158V (CD16A V158), soluble monomer (human) (UniProt P08637); assay: value on CD16A 158V over value on CD32B
# [17] = target: FcγRIIA 131H (CD32A H131), soluble dimeric Fc fusion (human) (UniProt P12318); assay: value on CD32A 131H over value on CD32B
# [18] = target: FcγRIIB-Fc fusion protein, soluble dimeric: extracellular domain of FcγRIIB fused to the hinge-CH2-CH3 domain of human IgG2 (human) (UniProt P31994); assay: ELISA
# Chain of FcγRIIB-Fc fusion protein, soluble dimeric: extracellular domain of FcγRIIB fused to the hinge-CH2-CH3 domain of human IgG2 (human) (P31994 43-217 limits assumed): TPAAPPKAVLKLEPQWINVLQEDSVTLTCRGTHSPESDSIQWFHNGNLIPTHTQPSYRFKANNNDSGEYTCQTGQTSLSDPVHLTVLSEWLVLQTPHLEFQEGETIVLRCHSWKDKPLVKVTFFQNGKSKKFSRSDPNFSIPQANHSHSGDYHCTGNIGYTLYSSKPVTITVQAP
# FcγRIIIA = FcγRIIIA (UniProt P08637); assay: ELISA
# Chain of FcγRIIIA (P08637 17-208 limits assumed): as the sequence (P08637 17-208 F176V) above, with V160F counted along it
# [19] = target: FcγRIIB-Fc fusion protein, soluble dimeric: extracellular domain of FcγRIIB fused to the hinge-CH2-CH3 domain of human IgG2 (human) (UniProt P31994); assay: BIAcore
# [20] = target: soluble monomeric FcγRIIIA, the extracellular region of FcγRIIIA joined to the linker-AVITAG sequence (UniProt P08637); assay: BIAcore
# Chain of soluble monomeric FcγRIIIA, the extracellular region of FcγRIIIA joined to the linker-AVITAG sequence (P08637 17-208 limits assumed): as the sequence (P08637 17-208 F176V) above, with V160F counted along it
# [21] = target: FcγRIIB-Fc fusion protein, soluble dimeric: extracellular domain of FcγRIIB fused to the hinge-CH2-CH3 domain of human IgG2 (human) (UniProt P31994); assay: BIAcore, antibody captured on BSA-FITC
# [22] = target: soluble monomeric FcγRIIIA, the extracellular region of FcγRIIIA joined to the linker-AVITAG sequence (UniProt P08637); assay: BIAcore, antibody captured on BSA-FITC
# Chain of FcγRIIB (CD32B), soluble dimeric Fc fusion (human) (P31994 43-217): as the sequence (P31994 43-217 limits assumed) above
# Chain of FcγRIIA 131H (CD32A H131), soluble dimeric Fc fusion (human) (P12318 34-217): as the sequence (P12318 34-217 H167R) above, with R134H counted along it
# Chain of FcγRIIIA 158F (CD16A F158), soluble monomer (human) (P08637 17-208): as the sequence (P08637 17-208 F176V) above, with V160F counted along it
Substance,fold change relative to wild-type affinity [1] [fold],fold change relative to wild-type affinity [2] [fold],Koff WT/Koff mutant [5],Koff WT/Koff mutant [6],Koff WT/Koff mutant [7],Ratio of Affinities CD16A F158/CD32B [8],Ratio of Affinities CD16A V158/CD32B [9],also measured
Control immunoglobulin with variant Fc region S239D I332E A330L (XmAb) (antibody),0,0.74,,,,,,fold change relative to wild-type affinity [3]: 8.1 fold; fold change relative to wild-type affinity [4]: 13.9 fold
Immunoglobulin with variant Fc region F243L R292P P396L (antibody),0.4,-1.6,,,,,,fold change relative to wild-type affinity [3]: 2.4 fold; fold change relative to wild-type affinity [4]: 5.3 fold
"Immunoglobulin with variant Fc region L234F, F243L, R292P, Y300L (antibody)",,,,,,,,binding relative to wt (wt = 1) [10]: 0.3; binding relative to wt (wt = 1) [11]: 0.2; binding relative to wt (wt = 1) [12]: 0.2; binding relative to wt (wt = 1) [13]: 1.6; binding relative to wt (wt = 1) [14]: 1.7; Ratio of Affinities 16A-158F:32B [15]: 8; Ratio of Affinities 16A-158V:32B [16]: 8.5; Ratio of Affinities 32A-131H:32B [17]: 1.5
"Immunoglobulin with variant Fc region L235I, F243L, R292P, Y300L (antibody)",,,,,,,,binding relative to wt (wt = 1) [10]: 0.5; binding relative to wt (wt = 1) [11]: 0.1; binding relative to wt (wt = 1) [12]: 0.2; binding relative to wt (wt = 1) [13]: 3.3; binding relative to wt (wt = 1) [14]: 2.6; Ratio of Affinities 16A-158F:32B [15]: 16.5; Ratio of Affinities 16A-158V:32B [16]: 13; Ratio of Affinities 32A-131H:32B [17]: 2.5
"Immunoglobulin with variant Fc region L235Q, F243L, R292P, Y300L (antibody)",,,,,,,,binding relative to wt (wt = 1) [10]: 0.2; binding relative to wt (wt = 1) [14]: 1.8
"Immunoglobulin with variant Fc region L235V, F243L, R292P, Y300L, P396L (antibody)",,,,,,,,binding relative to wt (wt = 1) [10]: 1.3; binding relative to wt (wt = 1) [11]: 0.4; binding relative to wt (wt = 1) [12]: 0.4; binding relative to wt (wt = 1) [13]: 4.8; binding relative to wt (wt = 1) [14]: 6.1; Ratio of Affinities 16A-158F:32B [15]: 12; Ratio of Affinities 16A-158V:32B [16]: 15; Ratio of Affinities 32A-131H:32B [17]: 3.3
Immunoglobulin with variant Fc region P247L N421K D270E F243L (antibody),,,0.32,3.45,2.3,10.8,7.19,
Immunoglobulin with variant Fc region P247L N421K F243L (antibody),,,0.17,1.71,1.89,10.1,11.1,
Immunoglobulin with variant Fc region R255L P396L D270E (antibody),,,0.87,1.65,1.34,1.9,1.54,
Immunoglobulin with variant Fc region R255L P396L D270E F243L (antibody),,,0.38,1.64,1.75,4.32,4.61,
Immunoglobulin with variant Fc region R292P (antibody),-0.5,-2.7,,,,,,fold change relative to wild-type affinity [3]: 0.6 fold
Immunoglobulin with variant Fc region R292P V305I F243L P396L (antibody),-0.3,-1.6,,,,,,fold change relative to wild-type affinity [4]: -3 fold
Immunoglobulin with variant Fc region R292P V305I P396L (antibody),,,0.92,1.9,1.85,2.07,2.01,
"ch4-4-20 antibody, wild-type Fc (chimeric anti-fluorescein, IgG1)",,,,,,,,"ELISA, OD [18]: 0.4 OD; ELISA IIIA binding vs wt (FcγRIIIA): 1; ELISA, OD (FcγRIIIA): 0.5 OD; Kd [19]: 94 nM; Kd [20]: 198 nM; Kd [21]: 61.4 nM; Kd [22]: 319 nM"

# Continued, in another order:
fold change relative to wild-type affinity [1] [fold],fold change relative to wild-type affinity [2] [fold],Koff WT/Koff mutant [5],Koff WT/Koff mutant [6],Koff WT/Koff mutant [7],Ratio of Affinities CD16A F158/CD32B [8],Ratio of Affinities CD16A V158/CD32B [9],Substance,also measured
-3.3,-2.5,,,,,,Control immunoglobulin with variant Fc region E333A K334A S298A (AAA) (antibody),fold change relative to wild-type affinity [3]: 0.1 fold; fold change relative to wild-type affinity [4]: 0.6 fold
0,-0.7,0.32,2.3,6.69,7.19,20.9,Immunoglobulin with variant Fc region F243L R292P Y300L (antibody),fold change relative to wild-type affinity [3]: 3.6 fold; fold change relative to wild-type affinity [4]: 6.4 fold
,,0.58,2.46,1.89,4.24,3.26,Immunoglobulin with variant Fc region P247L N421K D270E (antibody),
0.6,1.6,2.58,1.73,1.27,0.67,0.49,Immunoglobulin with variant Fc region P396L (antibody),fold change relative to wild-type affinity [3]: 0.7 fold; fold change relative to wild-type affinity [4]: 0.3 fold
,,0.89,1.65,1.38,1.85,1.55,Immunoglobulin with variant Fc region P396L D270E (antibody),
,,2.22,1.6,1.49,0.72,0.67,Immunoglobulin with variant Fc region P396L F243L (antibody),
,,1.33,1.19,1.19,0.89,0.89,Immunoglobulin with variant Fc region Q419H P396L (antibody),
,,0.26,1.15,1.46,4.42,5.62,Immunoglobulin with variant Fc region Q419H P396L D270E F243L (antibody),
,,2.22,1.39,1.09,0.63,0.49,Immunoglobulin with variant Fc region R255L P396L (antibody),
,,1.07,5.62,10.1,5.25,9.4,Immunoglobulin with variant Fc region R292P F243L P396L Y300L (antibody),
,,0.37,1.37,1.14,3.7,3.1,Immunoglobulin with variant Fc region R292P V284M K370N (antibody),
1.9,0.2,1.18,,1.01,0.99,,Immunoglobulin with variant Fc region Y300L (antibody),fold change relative to wild-type affinity [3]: 0.2 fold; fold change relative to wild-type affinity [4]: 0 fold
